Laboratory results published in patent US20190309044A1, “POLYPEPTIDES AND USES THEREOF AS A DRUG FOR TREATMENT OF AUTOIMMUNE DISORDERS” (Compugen Ltd., priority 2017, published 2019).
Entries after “also recorded” stand apart in the source; their conditions may differ.

Legend:
Assay type in all cases: in vivo, mouse
SJL/J mice [1] = experiment: Adoptive transfer R-EAE, clinical score
Protocol: Female SJL/J mice were primed with 50 μg of PLP139-151/CFA according to the standard laboratory protocol on day 0. On day 8 post disease induction, the inguinal lymph nodes were collected and the total lymph node cells were re-activated in culture in the presence of PLP139-151 for 3 days. At the end of culture, cells were collected and transferred into naive recipient SJL/J mice.
a. Mice were shaved (about a 1 in.×1 in, square on the back between the hind flanks) and injected with CFA/PLP139-151 emulsion at 100 μl per mouse s.c., divided between three spots on the back and flanks. Peptide and final dose given per mouse: 50 μg of PLP139-151 peptide on day 0.
b. On day 8 post priming with PLP139-151/CFA, the draining inguinal lymph nodes were collected, and single cell suspensions were prepared. Total lymph node cells were cultured at a density of 8×10^6 cells per ml in the HL-1 medium plus PLP139-151 peptide (20 μg/ml) in T75 flasks.
c. After 3 days of culture, the PLP139-151 reactivated cells were collected and counted using an hemacytometer. The number of total viable cells and the number of blast cells was determined. […]
f. Mice were scored on the indicated days, on a 0-5 disease score scale per standard laboratory protocol: 0, no abnormality; 1, limp tail; 2, limp tail and hind limb weakness; 3, hind limb paralysis; 4, hind limb paralysis and forelimb weakness; and 5, moribund. […]

[2] = system: total splenocytes and lymph node cells; experiment: Ex vivo recall responses, adoptive transfer R-EAE; settings: day 45; treatment from onset of remission
Protocol: On day 45 (unless otherwise indicated) following cell transfer, spleen and cervical lymph nodes or CNS from 3 representative mice of each group were collected, and the total cells were activated ex vivo at 0.5×10^6 cells per well with either OVA323-339, PLP139-151, PLP178-191, MBP84-104 (20 ug/ml), or anti-CD3 (1 ug/ml). Two sets of cultures were set up side-by-side. One set was pulsed with 1uCi of tritiated thymidine at 24 hours and harvested at 72 hours to determine cell proliferation. In the second set of cultures, supernatants were collected at 72 hours and tested for peptide-specific cytokine production as determined by LiquiChip.

SJL/J mice [3] = experiment: Trafficking of transferred cells into the CNS by flow cytometry, adoptive transfer R-EAE; settings: day +10 post cell transfer
Protocol: PLP139-151 sensitized cells were generated as described in Materials and Methods (cell counts in the reactivation culture are presented in Table 2) and labeled with PBSE (4 uM) before transfer to naïve mice. In study “Cgen data” (FIG. 12), disease was induced in recipient mice (n=10 per group) by i.v. transfer of 5×10^6 blast cells to each recipient mouse. A relatively large number of transferred cells were used in order to allow detection of the transferred cells by flow cytometry analysis at the end of the study. Mice were split into Control Ig and C1ORF32 ECD-Fc (SEQ ID NO:42) treatment groups, receiving 100 ug/dose intraperitoneal injection three times per week for 2 weeks. On Day +14 after cell transfer, 5 representative mice from each group were selected for analysis of trafficking of transferred cells into the CNS. Spleens, cervical lymph nodes, and CNS were collected, and the number of PBSE- or PBSE+/CD45+/CD3+/CD4+ T cells was analyzed by flow cytometric analysis.
An additional experiment (designated “MYC48 FACS”, FIG. 13) was performed using an alternative staining follow-up approach. […] To evaluate C1ORF32 ECD-Fc (SEQ ID NO:42) effect on immune cell trafficking to the CNS, spleens, cervical lymph nodes, and CNS cells collected form 5 mice on day +10 post cell transfer, and the number of transferred CD45hi PBSE+ or GFP+ cells was analyzed by flow cytometry. […]

SJL/J mice [4] = experiment: PLP139-151/CFA R-EAE upon IL-10 or TGFb blockade, clinical score
Protocol: SJL/J mice were purchased from Harlan and primed with PLP139-151/CFA per the standard protocol, as described in 21.1.2 Methods, above). At disease remission the mice were split into 6 different treatment groups (n=5) as follows:
Mice were treated with Control Ig (mouse IgG2a) or C1ORF32 ECD-Fc (SEQ ID NO:42) at 100 ug/dose, each via an i.p. injection. This was followed with a second i.p. injection on the same day of either anti-IL-10 (rat IgG1), rat IgG1 (control Ab), or anti-TGFβ (mouse IgG1) at 100 ug/dose, each. All treatments were given 3×/wk for 2 wks, beginning on day +20 (onset of disease remission) and until day +31 post disease induction. All mice were followed for disease scores until day 44 post disease induction. On day 44, mice were sacrificed and analyzed for total T cell and Treg cell numbers in spleen and CNS. […]
Mice were followed for disease and scored on a 0-5 scale per standard lab protocol as follows: 0, no abnormality; 1, limp tail; 2, limp tail and hind limb weakness; 3, hind limb paralysis; 4, hind limb paralysis and forelimb weakness; and 5, moribund. Dead mice were scored with a score of 5 on the day of death only, and were not further scored on the next days.

B1: C1ORF32 ECD-Fc (SEQ ID NO:42): human-mouse fusion protein: human C1ORF32 ECD fused to mouse immunoglobulin Fc (SEQ ID NO:42) (protein)
chain: LQVTVPDKKKVAMLFQPTVLRCHFSTSSHQPAVVQWKFKSYCQDRMGESLGMSSTRAQSLSKRNLEWDPYLDCLDSRRTVRVVASKQGSTVTLGDFYRGREITIVHDADLQIGKLMWGDSGLYYCIITTPDDLEGKNEDSVELLVLGRTGLLADLLPSFAVEIMGSENLYFQGSGEPRGPTIKPCPPCKCPAPNLLGGPSVFIFPPKIKDVLMISLSPIVTCVVVDVSEDDPDVQISWFVNNVEVHTAQTQTHREDYNSTLRVVSALPIQHQDWMSGKEFKCKVNNKDLPAPIERTISKPKGSVRAPQVYVLPPPEEEMTKKQVTLTCMVTDFMPEDIYVEWTNNGKTELNYKNTEPVLDSDGSYFMYSKLRVEKKNWVERNSYSCSVVHEGLHNHHTTKSFSRTPGK
modifications: Fusion protein human C1ORF32-ECD fused to mouse IgG2a Fc
In the case of B1, the “disease induction / development” value (SJL/J mice [1]; 100 ug/dose i.p. 3x/wk 2 wks from time of cell transfer) is reported as “complete abolishment of disease induction; also recorded: abolished disease development”, the “clinical signs of the disease” value (SJL/J mice [1]; 100 ug/mouse i.p. 3x/wk 2 wks from onset of disease remission) is reported as “robust inhibition of clinical signs” and the “recall responses, cellular proliferation of splenocytes and lymph node cells” value [2] is reported as “decreased level of cellular proliferation”. For the same molecule, the “number of total or activated transferred T cells in spleen and cervical lymph nodes” value (SJL/J mice [3]) was “No change”, the “beneficial effect on disease” value (SJL/J mice [4]; concomitant administration of anti-IL-10) was “abrogated the beneficial effect” and the “beneficial effect on disease” value (SJL/J mice [4]; concomitant administration of anti-TGF) was “abrogated the beneficial effect”.
